Assay: label from the status in PepcDB records

Sequence	protein production
MNTSNRRMGLFYVITGATCWGIGGTVAKKLFQEYQIDVNWLVTTRLLTAGMLLLMLQLFRKDRSQVIEVWKHKASAGQLLIFGLLGMLAVQYTYMASIQHGNAAVATLLQYLSPVIVIIYTLLRKQTVLTKQDIITVVLALVGCFFLLTNGSMSQLSVPAAAVVWGVLSGFAAAFYTLYAVGLLNKFDSLVVVGWAMIIGGFALGFIHPPWQLDFQRLTAEAYAYILFVILFGTMIAFWFFIKSLESLSPKETSLLGSLEPLSAVVTTVVWLKAPFGSFQWIGAICIIGITLILALHKEPSMESEKSILKIRNHANRDI	failed
MNTYAQESKLRLKTKIGADGRCVIEDNFFTPPFKLMAPFYPKDDLAEIMLLAVSPGMMRGDAQDVQLNIGPNCKLRITSQSFEKIHNTEDGFASRDMHIVVGENAFLDFAPFPLIPFENAHFKGNTTISLRSSSQLLYSEIIVAGRVARNELFKFNRLHTKISILQDEKPIYYDNTILDPKTTDLNNMCMFDGYTHYLNLVLVNCPIELSGVRECIEESEGVDGAVSETASSHLCVKALAKGSEPLLHLREKIARLVTQTTTQKV	failed
MNVLFTSVPQEDVPFYQEALKDLSLKIYTTDVSKVPENELKKAELISVFVYDKLTEELLSKMPRLKLIHTRSVGFDHIDLDYCKKKGILVTHIPAYSPESVAEHTFAMILTLVKRLKRIEDRVKKLNFSQDSEILARELNRLTLGVIGTGRIGSRVAMYGLAFGMKVLCYDVVKREDLKEKGCVYTSLDELLKESDVISLHVPYTKETHHMINEERISLMKDGVYLINTARGKVVDTDALYRAYQRGKFSGLGLDVFEDEEILILKKYTEGKATDKNLKILELACKDNVIITPHIAYYTDKSLERIREETVKVVKAFVKGDLEQIKGNFVVGPS	not failed
MNVLRPALLTLACMLASPVMSDDLPSLGDASSSIVSPEQEFQLGRAWLSMLRNQVDAISDPQLKDFVESSVYRLAETSDLQDHRLAFILIRDAQINAFAAPGGVIGVNGGLLLNAQTEGEYAAVLAHELGHLIQRHFARGIEAQQRMQLPVMAAMLAGIVAAAAGAGDAGIAAIAGTQAAAIQNQLRFSRQNEQEADRVGVTNMVRAGYDPRSMPNMFERLARQYRYDGKPPEFLLTHPVTESRIADTRNRAEQYPQGGKEDSLRYQQMRARTQLLFEETPGMAGKRFRAMLNDNPKLDAARYGLAISQTRIGQLNDARDNLRQLLAKAPNDVAYNLAQVELDITANRLPDADQRLKKMLAQFPSSYPLKQVRADLMLKMGKPQESEKILDDLSKARPLDPDVWNRLAEVRSLTNNAIGVHQARAEYLSLTGDYQAAIEQLDFAKRRAGGNFQLAARLDARQQEIRQQEKMVKEMFR	failed
MNVMQENQIKLIEHIKQAVVQAVGLEETEVPEILLEVPKDKKHGDYSTNIAMQLARVAKKAPRQIAESIVPELKKDTKLIKEVEIAGPGFINFYLDNAYLTDLVPVILTEDKKYG	not failed
MNVSHISAVSYYFARYIQEVLEVPVGIVVSTWGGSKIEAWMSRESIKPFSSIDLSILDNDAEVKNPTATPCVLYNGKIAPLTNFAVRGFLWYQGESNRDNADLYQSLMPAFVADLRAKWGRGELPFYFVQIAPFDYEGADGTSAARLREVQLQNMKDIPNSGMVTTMDVGHPVFIHPVDKETVGNRLAYWALAQTYGMKGFGYAPPVYKSMEIQENKIYINFYNAQRGLSPMWTSLKGFEIAGEDKVFYPAFAEIETTTARLAVSSDKVSHPVAVRYAYKNYVEASIFSIHGIPAAPFRTDNWLEHHHHHH	failed
MNVTPWEVEGVIDYSKLIEEFGMQPFSEVLPEIDNPHILMRRGAIFGHRDYWRIIEAMQKKEPWAVMSGFMPSGLPHFGHKMTMDEIVWHQSAGGKAFVAIADMEAHSVRGLSWEKTRELGMLYIKSIIALGLREDAVIYFQSKSSHVKDLAFELSAEVNFSELRAIYGFNSDTSLAKMFVTAIQAADILHPQLSDFGGPKPVVVPVGADQDPHMRLTRDLAARISIFSFEPVEGGVRVRSRKGAEYLSSLRDLEFDKKIYEEHMDIFGEAEEIERAVRKIEVEIGGFAFIPPSSTYHRFTTGLTGGKMSSSKPESYISLLDPPEEGAKKVMKAFTGGRATAEEQRRLGGEPDRCVVFELYSFHLIDSDEELNQIEAECREGRLLCGKCKKMAAELVKSFLKEHQEKMEAVDLSNYTIIG	failed
MNVWLLGRGELRRRHDDVLQLERAFLTDRTGLHFVNARSSEDLLALAESRRAEQQWPVLDAEWISPVGTDTCDDLVWQNLESTLDGRPDTFYSTAGFEAGNTLSGTGELAPGEAFLAYRFWRPVRVYAVQLRAFQADFHPGRPVYPFQVARVGVGCSLQAGMSLSYGADASAPGTSCNYRCFCTTEQQTLVFDDPMVGVYLVICLKGFPQQQLTDRLHYAAVSGIRVFGEPISSPALENELSCLISRGFILDGRDAARWLDLRSAQEHAAPMHIPEDEVI	not failed
MNVYDLIAEHYSGLFPLETEKLEFIQHLCPLPGRLCDAGCATGELVMGLYQKGYDICGLDLNEKMIGIAEKKASCIRKTGELMFYHADIADIMQFGKFKGVLCFGNTLPHLRDEEALRRFFGSVYRSLEEHGIFIVEVLNYDRILDDKKMDFKDKETKDFIFKRNYDFLPGGNIRFTIEFTDKQRSTVGSDFTVLHPLKRQMLLALFKQTGFKSVSAYSDYSFTESRAEDYAVVYTANK	failed
MNWKDKVKTTFYSCDRFVRFVIQHFIQDDCTYIASALAFTSLLAVVPLMSVGLAIFSSFPVFQGLAEPVQNFIFDNFVPATGKIVQSYLQQFTSQVSKLSIWGIVFLIFTALLVMFTIERAMNKIWRVSSSRHGVSAFLLYWAIISLAPVLLGLSLAASSYLFSMPILADHRAPYTILHYSPFFLSLIGFTFLYVVVPNCPVKIRHAFWGGLVAAILFESAKHAFAYYLIRYNTYALLYGAFATVPIFFIWVYWVWIITLLGAEISYAFSVHHQRRGGKSLDGFSHALLWLHQLWLAQQHGKGLSFNDLVDASKQPFAVDVDEMINALIYHELIHATADGHYMLSRDLSHVTLYDLTQLLPYRLPTHLELQYSKASLAEQWRAAFKRHNEELKKSLDINLEELFKKTGTVIK	failed
MNWRRYNGRKKLAIIVPIYNVADYLKDCLNSLLKQGVPEKELQIILVDEGSTDNSAQIAQKFVEKYPNFFELHQFENAGLGAARNRGTRLARARFITYVDSDDIVAPNSYEYMLGILERTGSQIITGNVHRFNSKKEWLNNIHARSHLGDFENTSLKEHPELIWDSTSWNKIFCLDFLKENNLYFPEGVLYEDIPMINPAFAAAKSIDIVKRMVYLWRAREGSITESSTDAKAVLDRITITEIALAGLKKYNAPNEILDILYLKSLNLGIISMLRKEKYEYISLERKQELFNSLKEYLEKFPSDTLYQAKFDKLIYFDKVLKAKTQEEFDEITSKYLKNEIGFSGYWNDAGQYVLKSDYSDLEKIVTSDDLEIHPKIEEVVFEDDSLKIQGYFYAKYSDMSAPENVKILGISALSDDGNTINEIVGEKRNFENQRITAKFGYNLNHFVKDGADFNYDYSGYELKIPLNHLEFETTNSLAFVLEVEIDGLKFEVPIKNPISGDKPRPKVGLSNAQVFSVSYKTDWSLVLSLKERSVEELYFSEDGKELRIKGNATKIALKSGKTKLPLKLVGGRVMISQAVQEKIKSFDKSVFHWWQFITYVNGKEKSIYYSGFPKNFQNDSNLEILFSNNGVATLGISYLYPLVEKLQVEENVLKLAFSLKGWMTEATKVQIVADPTLSMIWETEKMNENLYQLSLPLTLDGFSDKEWLNFHVRLTFNDGYQTNELLRWGKKEFALKNEWVSANGIGWFFRSVEQKEHGAFAIKRTADRVFQEKVGNLEYVLQEKYQNWLKEPVLNDYIMMSSFWGRNNHFNDNPEALYRYIEKNYPNMTTIIVLKDAIRSYPEYPNAKIVSYGTADYWYYLARSKYFVNNVNFTEPPRIKREEQIEIQTMHGTPLKTLGFDVLGDWKDSTYNEVLRKNGNWDYLTVPSDWVANYALKAFRVSPQIIKSGYPRNDKLFIDYKM	failed
MNYDRYYTCDLVNGEGVRVTLFVTGCAHACDGCHNRSTWDRKSGRPFTPEAREELLRHCASHDGLSLSGGDPLLPANRDEILALCRMFKQRYPQKNIWLWTGYDYEEVRELEILQFVDVLIDGRYRQDLPTSKPWRGSDNQRLIRLGAGSGAAVAAVGAADVIAFEA	failed
MNYFLMIILGVLGAESRFAIELTIDNSAYPYGTLIINMIGCFLLGFMYYFFVEAKKTINQLVAVVSTGFVGSFTTFSTFELEIFKMFQLDQYLKAISYFFVTMLSGLLFVFLGYCLSKLIIIKRKENK	failed
MNYKLTLHPGSNPVEEFTSIPHGVTSLDLSLNNLYSISTVELIQAFANTPASVTSLNLSGNSLGFKNSDELVQILAAIPANVTSLNLSGNFLSYKSSDELVKTLAAIPFTITVLDLGWNDFSSKSSSEFKQAFSNLPASITSLNLRGNDLGIKSSDELIQILAAIPANVNSLNLRGNNLASKNCAELAKFLASIPASVTSLDLSANLLGLKSYAELAYIFSSIPNHVVSLNLCLNCLHGPSLENLKLLKDSLKHLQTVYLDYDIVKNMSKEQCKALGAAFPNIQKIILVDKNGKEIHPSHSIPISNLIRELSGKADVPSLEHHHHHH	not failed
MNYPAENFTKRFLSSLAQVMLQSNTVTGFLFLVGIGLNSPTMLLGCILAILSSLAVAKLFQYDSNCVTKGFYGFNAALVGIAVFSLLPLSFISLVLVLLGGAFSALLMHVMITKIPSIPALTTPFILSTWTIVLIIDSVGLADPMSGSFTGSISPTLIDSLHGVLRGVGQVMLQDSWLSGAVFCCALLFSSYKTAVWAILGSLIGLLVATTFGFSQEKAMMGLYGFNGCLVAIALVDRYPNKYWLIILAILFSVLFTRVFEMIAIPAFTAPFVMTTWLMIGIVKLKADFD	failed
MNYPKAILLSLALLAMHSLNAEVVTYPAGVGVKTLNDFSVEVRQGSGPWLPVDVYPVKVDRVDEKGHNVEVASIAYFDFDGMVDVRVISNKERVNSVRVRPLSYKITPDCVGDTVTFSLSRPRNLSVEVNGDIFHNLHLFANPIDKFRPSDKEIQRALKKKKGSNLIYFGPGVHNLPNDTLFVPSGTTVYIDGGARVYGNIFTEGAHDVNIFGRGEVHPDGRGAGVWVRRSKNVRIDGIVVSQLPIGQCDSVELTNVKSISYYGWGDGMDVFSSSNVILDGVFCRNSDDCAAVYASTQGFKGGSNNVLVKNATLWADVAHPINIGGHGDPNGMDTVQNVTFRNIDILDQAEKQIDYQGCLAINPGDNTLVRNITFENIRIEDFRNGQLVNFRISFNPKYCVSTGRGIQNVLVKDVTYNGSGENLSIIAGYDENHKISGIRFVNLVVNGRKITDDMPGKPKWYKTGDMAGIFVGEHVENLSFE	failed
MNYQLFKHSDENASYVVFSSGLGGHGSFWQAQLDVFRQYFHVLIYDQEGCHASSELLADGYSFEHLALQVKQLLQQLNIVRFHFIGHALGGFIGIELAHRYASETCQLLSLTLINAWQQLDPHTLRCFTTRIALLQHAGTAAYLHAQALFLYPPLWISEHTALLEQQEAKMQSDFPPHANVLKRLNALMQYQVNTARIDTLKQLPVCLIANQDDMLVPYVQSLNLWKKLPDAQLKLLPYGGHASTVTEARQVNQLMLDFLK	failed
MPAIGSAPDGSRVSFMPKAWLLLALLLLLSLPARAEEWPALQWSQGTPASGPALQALEEYAFVPRDDESRQGIRTDALLVIRDGRLLYERYAGATGPQTPHLAWSASKSLLAVLLGVAFGEGRFQLQDPAAKFYPPLEAHPDITLADLLHWASGLDWQEDYEYAPLNSSVVAMLYTRGHRDMAAFTVQQAASGPPGQVFRYSSGDSNLLAASLRGMVGEGQYADYPWRALFEPLGITQAVWERDAAGTFVASSYLYLTARDLARIGLLMQRDGRWRDRQLLPKAWVEFCRTPFRGYRANQDVAVAGGHWWLNREVDGAPRPWPDAPADTYAALGHWGQALYVLPAQRLVIVRYGDDRDGSYQHNELLKRVLAAFATPEQP	failed

Source: a protein production outcome set (Wang et al. 2014)
